In general, Kd refers to the free concentration of one partner at which half of the binding sites on the other are occupied at equilibrium, for simple one-to-one binding. In general, koff refers to the first-order rate constant of dissociation. Read a high koff as fast dissociation. For orientation: kon means the rate constant with which the complex forms. A low value points to slow association.

7 molecules from patent publication US20180134804A1 (Memorial Sloan Kettering, published 2018) can be followed below.

The target of test [1] is T1, HLA-A0201 on T2 cells without added peptide (human).
T1 construct: Used as the negative target (T2 cells alone) and as the HLA-A0201 partner of the free peptides in the T2 stabilization assay; also called T2 alone; empty T2 cells
Briefly: flow cytometry, scFv phage on T2 cells, anti-M13 detection. (In general: A flow cytometer gives signals particle by particle.)

For test [2], the target named is T2, Ras10-WT peptide/HLA-A0201 complex on peptide-pulsed T2 cells (human).
T2 construct: also called Ras WT; T2-0142WT
Briefly: flow cytometry, scFv phage on peptide-loaded T2 cells, anti-M13 detection.

For test [3], the target named is T3, Ras9-WT peptide/HLA-A0201 complex on peptide-pulsed T2 cells (human).
T3 construct: also called T2-0141WT
The description is as above.

Test [4] addresses T1, HLA-A0201 on T2 cells without added …. Briefly: flow cytometry of T2 cells without peptide.
For test [5], the target named is RAS10-V9A peptide/HLA-A0201 complex on peptide-pulsed T2 cells. Briefly: flow cytometry of T2 cells pulsed with peptide.
Test [6] concerns the target RAS10-G13A peptide/HLA-A0201 complex on peptide-pulsed T2 cells. The test is described as follows: flow cytometry of T2 cells pulsed with peptide.
In test [7] the target is T4, Ras10-G12C peptide/HLA-A0201 complex on peptide-pulsed T2 cells (human).
T4 construct: also called Ras-G12C
Briefly: flow cytometry, indirect staining of peptide-pulsed T2 cells (peptide 50 µg/ml).

The target of test [8] is Ras10-G12D peptide/HLA-A0201 complex on peptide-pulsed T2 cells (human). The description is as above.
Test [9] addresses T5, Ras9-G12V peptide/HLA-A0201 complex on peptide-pulsed T2 cells (human).
T5 construct: also called K-Ras9 G12V/HLA A0201; T2-014A1mut
Briefly: flow cytometry, indirect staining of T2 cells pulsed with 50 ug/ml peptide.

For test [10], the target named is T3, Ras9-WT peptide/HLA-A0201 complex on …. Described as above.
For test [11], the target named is T6, biotinylated Ras10-G12V/HLA-A0201 complex monomer (human, chain 1: C-terminal BirA substrate peptide (letters not given), enzymatically biotinylated by BirA).
T6 construct: also called Ras G12V/HLA-A0201; Ras-G12V/HLA A0201 complex monomer; not shown: the BirA substrate peptide (BSP) at the C-terminus of the heavy chain
The test is described as follows: BLI (ForteBio Octet QK), biotinylated pMHC on streptavidin sensor, mAb at 10 µg/mL, 1:1 model partial fit. (Biolayer interferometry detects binding as a change in optical thickness at a sensor tip.)

Test [12] deals with T7, biotinylated Ras10-WT/HLA-A0201 complex monomer (human, chain 1: C-terminal BirA substrate peptide (letters not given), enzymatically biotinylated by BirA).
T7 construct: also called Ras wt/HLA-A0201; not shown: the BirA substrate peptide (BSP) at the C-terminus of the heavy chain
Described as above.

Test [13] has as its target T2, Ras10-WT peptide/HLA-A0201 complex on …. The test is described as follows: flow cytometry of T2 cells pulsed with peptide.
Test [14] addresses T7, biotinylated Ras10-WT/HLA-A0201 complex …. The test is described as follows: BLI (ForteBio Octet QK), biotinylated pMHC on streptavidin sensor.
Test [15] concerns the target RAS10-G10A peptide/HLA-A0201 complex on peptide-pulsed T2 cells. The test is described as follows: flow cytometry of T2 cells pulsed with peptide.
For test [16], the target named is T8, Ras10-G12V peptide with alanine substitution at position 12/HLA-A0201 complex on peptide-pulsed T2 cells (human).
T8 construct: Position 12 counts on the Ras protein; also called peptide containing an alanine substitution at position 12
The test is described as follows: flow cytometry of T2 cells pulsed with peptide.

In test [17] the target is T1, HLA-A0201 on T2 cells without added …. Briefly: T2 stabilization control, flow cytometry: BB7 staining of T2 cells pulsed with the peptide.
Description: The binding of the mAb to the peptide/HLA-A2 complex was measured by indirect (A) or indirect staining with mAbs conjugated to APC (B).
For test [18] the target is unchanged. The test is described as above. The source holds these as a separate data set.
Description: The binding of the mAb to the peptide/HLA-A2 complex was measured by direct staining with mAbs conjugated to APC or by indirect staining with mAbs, followed by secondary goat anti-human IgG1/FITC mAb. The binding of the mAbs was measured by flow cytometry on a FACScalibur (Becton Dickenson) and analyzed with FlowJo 9.6.3 software. […] (F) Antibody by the above peptides to T2 cells was measured.

B1: scFv phage clone #2 (scFv)
scFv: QSVLTQPPSVSGAPGQRVTISCTGSSSNIGAGYDVHWYQQLPGTAPKLLIYGNSNRPSGVPDRFSGSKSGTSASLAITGLQAEDEADYYCQSYDSSLSGSVFGTGTKVTVLGSRGGGGSGGGGSGGGGSLEMAVQLVQSGAEVKKPGSSVKVSCKASGGTFSSYTINWVRQAPGQGLEWMGGFIPISGTVNYAQKFQGRVTITADESTSTAYMELSSLRSEDTAVYYCARPLDWTEDIWGQGTLVTVSS
notes: also called K-Ras G12V/HLA A0201 specific phage clone
With B1, the binding result in test [1], in test [2] and in [3] was “no binding” throughout.

B2: Ras mAb #7, full-length human IgG1 (antibody, V domains shown)
VH: EVQLVESGAEVKEPGSSVKVSCKASGGTFSSYGISWIRQAPGQGLEWMGEIIPIFGTPNYAQKFQGRVTITADESTSTAYVELSSLRSDDTAVYYCARSYYGYFDGWGQGTLVTVSS
VL: DIQMTQSPSSLSASVGDRVTITCQASQDISNYLNWYQQKPGKAPKLLIYDASNLETGVPSRFSGSGSGTDFTFTISSLQPDDFATYYCQQYKSYPLTFGGGTKVEIKR
notes: also called clone #7; Ras antibody #7
As to B2, the binding result in test [4] was “no binding (tested: 10 ug/ml)”; in test [5], “binds”; in [6] it was “binds”; in test [7], “no binding”; in test [8], “no binding”; in [9], “no binding (tested: 10 ug/ml)”. In addition, the binding result in test [10] was “no binding (tested: 10 ug/ml)”. The Kd in test [11] is 8.77 nM; in [12] it was 65.1 nM. Further, the koff is 0.000746 s⁻¹ in test [11] and 0.00153 s⁻¹ in [12]. Moreover, the kon in [11] is 85000 M⁻¹ s⁻¹; in test [12], 23400 M⁻¹ s⁻¹.

B3: Ras mAb #2, full-length human IgG1 (antibody, V domains shown)
VH: QVQLVQSGAEVKKPGSSVKVSCKASGGTFSSYTINWVRQAPGQGLEWMGGFIPISGTVNYAQKFQGRVTITADESTSTAYMELSSLRSEDTAVYYCARPLDWTEDIWGQGTLVTVSS
VL: QSVLTQPPSVSGAPGQRVTISCTGSSSNIGAGYDVHWYQQLPGTAPKLLIYGNSNRPSGVPDRFSGSKSGTSASLAITGLQAEDEADYYCQSYDSSLSGSVFGTGTKVTVLG
notes: also called clone #2; Ras antibody #2
Turning to B3, the binding result is “no binding (tested: 10 ug/ml)” in [4]; “no binding (tested: 10 ug/ml)” in [13]; “no binding (tested: 10 µg/mL)” in test [14]; “no binding” in test [8]; “no binding (tested: 10 ug/ml)” in test [10]. The molecule further yielded a dissociation constant Kd in [11] of 8.88 nM.

B4: Ras mAb #4, full-length human IgG1 (antibody, V domains shown)
VH: EVQLVQSGAEVKKPGASVKVSCKASGYTFTAYYLHWLRQAPGQGLEWMGWMNTNNGATRYAQKFQDRVTMTRDTSINTAYMEMSGLSSDDTAMYYCARGDISQDFADVWGQGTLVTVSS
VL: NFMLTQPHSVSESPGKTVTISCTGSSGSIASNYVQWYQQRPGSAPTILIYEDNKRPSGVPDRFSGSIDSSSNSASLTISGLKTGDEADYYCQSYDDINHWVFGGGTKLTVLG
notes: also called clone #4; Ras antibody #4
Take B4: the binding result in test [4] is “no binding (tested: 10 ug/ml)”; in [15] it was “no binding (tested: 10 ug/ml)”; in test [13], “no binding (tested: 10 ug/ml)”; in [16] it was “no binding (tested: 10 ug/ml)”; in test [14], “no binding (tested: 10 µg/mL)”; in [7], “no binding”. In addition, the binding result is “no binding” in test [8], “no binding (tested: 10 ug/ml)” in test [9] and “no binding (tested: 10 ug/ml)” in test [10]. Further, in test [11], the affinity, expressed as Kd, was 9.19 nM. Also, the off-rate (koff) in test [11] came out at 0.00363 s⁻¹. For the same molecule, in test [11], the kon turned out to be 396000 M⁻¹ s⁻¹.

On to LVVVGAGGV (Free synthetic peptide) [RAS9-WT peptide], for which the binding result in [17] is on record as “binds”.

B5: RAS10-G12S peptide (peptide)
peptide: KLVVVGASGV
notes: peptide of the complex m14; also called R10-G12S
For B5, the binding result in [18] is given as “binds”.

Consider KLVVVGGVGV (Position 11 counts on the Ras protein) [Ras10-A11G peptide], for which, in test [18], the binding result is reported as “binds”.
